Numbering of substitutions follows the chain as printed.
T1: Human CD98 expressed on stably transfected CHO-K1 cells (human)
T1 construct: also called huCD98; CD98 heavy chain
T1 chain: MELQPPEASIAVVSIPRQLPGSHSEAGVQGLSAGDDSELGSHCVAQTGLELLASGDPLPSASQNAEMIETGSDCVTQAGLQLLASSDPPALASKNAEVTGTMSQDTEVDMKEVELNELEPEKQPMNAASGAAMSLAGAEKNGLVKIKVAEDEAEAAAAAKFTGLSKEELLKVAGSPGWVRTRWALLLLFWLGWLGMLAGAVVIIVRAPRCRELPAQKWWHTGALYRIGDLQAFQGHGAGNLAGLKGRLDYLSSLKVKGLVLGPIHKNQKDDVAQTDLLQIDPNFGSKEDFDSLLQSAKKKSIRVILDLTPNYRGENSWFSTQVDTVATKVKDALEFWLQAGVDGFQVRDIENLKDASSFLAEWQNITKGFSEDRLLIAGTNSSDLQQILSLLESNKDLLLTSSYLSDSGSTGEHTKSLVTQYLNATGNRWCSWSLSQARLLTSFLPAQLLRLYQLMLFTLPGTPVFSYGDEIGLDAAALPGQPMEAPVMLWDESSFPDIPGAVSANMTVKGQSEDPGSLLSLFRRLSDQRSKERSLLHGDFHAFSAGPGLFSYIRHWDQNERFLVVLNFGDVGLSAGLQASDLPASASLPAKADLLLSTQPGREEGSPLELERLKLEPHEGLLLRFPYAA

T2: Human CD98 ECD with C-terminal His-tag (human, UniProt P08195 105-529)
T2 construct: also called huCD98 ECD; recombinant human CD98 extracellular domain
T2 sequence: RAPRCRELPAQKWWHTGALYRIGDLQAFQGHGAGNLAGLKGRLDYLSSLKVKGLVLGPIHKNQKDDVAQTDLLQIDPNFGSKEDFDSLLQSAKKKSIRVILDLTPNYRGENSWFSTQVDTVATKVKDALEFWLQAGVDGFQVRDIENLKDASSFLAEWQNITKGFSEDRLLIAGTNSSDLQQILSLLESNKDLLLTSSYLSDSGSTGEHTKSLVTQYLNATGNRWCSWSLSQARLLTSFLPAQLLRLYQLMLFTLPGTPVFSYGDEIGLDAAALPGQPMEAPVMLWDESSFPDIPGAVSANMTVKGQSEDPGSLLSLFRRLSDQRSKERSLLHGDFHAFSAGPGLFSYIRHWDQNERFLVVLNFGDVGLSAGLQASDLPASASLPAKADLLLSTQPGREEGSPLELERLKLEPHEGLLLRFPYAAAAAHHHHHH

T3: Cynomolgus monkey CD98 ECD with C-terminal His-tag (cynomolgus monkey, UniProt P08195 105-529 (human entry))
T3 construct: also called cyCD98 ECD; recombinant cynomolgus monkey CD98 extracellular domain
T3 chain: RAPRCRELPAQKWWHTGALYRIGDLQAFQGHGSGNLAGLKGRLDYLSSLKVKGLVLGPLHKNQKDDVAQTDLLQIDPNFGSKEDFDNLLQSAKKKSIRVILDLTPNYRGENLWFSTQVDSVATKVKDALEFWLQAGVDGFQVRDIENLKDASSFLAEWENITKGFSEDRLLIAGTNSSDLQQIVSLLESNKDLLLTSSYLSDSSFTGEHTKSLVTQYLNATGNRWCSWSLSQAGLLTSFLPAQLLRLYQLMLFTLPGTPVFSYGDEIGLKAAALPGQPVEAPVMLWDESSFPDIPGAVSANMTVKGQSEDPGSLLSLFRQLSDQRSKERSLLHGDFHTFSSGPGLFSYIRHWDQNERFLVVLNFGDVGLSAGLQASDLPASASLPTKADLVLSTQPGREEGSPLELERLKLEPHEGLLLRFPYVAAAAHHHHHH

T4: Human CD98 ECD with C-terminal His-tag (human, UniProt P08195 105-529)
T4 construct: The entry includes the linker and the polyhistidine tag; also called huCD98 ECD
T4 sequence: T2 sequence

T5: Cynomolgus monkey CD98 ECD with C-terminal His-tag (cynomolgus monkey, UniProt P08195 105-529 (human entry))
T5 construct: The entry includes the linker and the polyhistidine tag; also called cyCD98 ECD
T5 chain: T3 chain

B1: Recombinant anti-CD98 chimeric antibody chAb1 (antibody, human IgG1, V domains shown)
VH: EVKLVESGGGLVQPGGSLRLSCATSGFTFTDYYMSWVRQPPGKALEWLGFIRNPANVYTTEYSASVKGRFTISRDNSQSILYLQMNTLRAEDSATYYCARASYGNSEGWFAYWGQGTLVTVSA
VL: DIVMSQSPSSLAVSVGEKVTMSCKSSQNLLYNNNQKNYLAWYQQKPGQSPKLLIYWASTRESGVPDRFTGSGSGTDFTLTISSVKAEDLAVYYCQQYYSYPRTFGGGTKLEIK
B2: Recombinant anti-CD98 chimeric antibody chAb3 (antibody, human IgG1, V domains shown)
VH: EVKLVESGGGLVQPGNSLRLSCATSGFTFIDYYMSWVRQSPGKALEWLGFIRNKANGYTTEYSASVKGRFTISRDNSQSILYLQMDTLRAEDSATYYCTRDRPAWFVYWGQGTLVTVSA
VL: B1 VL with N28S, N32S, N33S, I81F, K85R, R102Y
B3: Recombinant anti-CD98 chimeric antibody chAb2 (antibody, human IgG1, V domains shown)
VH: B1 VH with T28N, P54K, V57G, N76D
VL: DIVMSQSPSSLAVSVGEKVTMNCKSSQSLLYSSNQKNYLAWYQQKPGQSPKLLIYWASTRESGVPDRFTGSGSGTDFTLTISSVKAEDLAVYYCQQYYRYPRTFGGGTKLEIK
B4: Recombinant anti-CD98 chimeric antibody chAb5 (antibody, human IgG1, V domains shown)
VH: B1 VH with S35T, P54K, V57G, Q78L, G104V
VL: B1 VL with N28S, N32S, N33S, P46L, Q96H
B5: huAb3v1 (antibody, V domains shown)
VH: EVQLVESGGGLVQPGRSLRLSCTTSGFTFIDYYMSWVRQAPGKGLEWLGFIRNKANRYTTEYSASVKGRFTISRDNSKSILYLQMNSLKTEDTAVYYCTRDRPAWFVYWGQGTLVTVSS
VL: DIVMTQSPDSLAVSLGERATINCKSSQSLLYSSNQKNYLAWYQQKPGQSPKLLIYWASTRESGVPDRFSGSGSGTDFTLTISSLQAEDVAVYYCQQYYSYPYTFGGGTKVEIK
notes: Humanized, further engineered clone of chAb3, converted to IgG and expressed as a full-length antibody
B6: huAb3v2 (antibody, V domains shown)
VH: B5 VH with N56Y, R57G
VL: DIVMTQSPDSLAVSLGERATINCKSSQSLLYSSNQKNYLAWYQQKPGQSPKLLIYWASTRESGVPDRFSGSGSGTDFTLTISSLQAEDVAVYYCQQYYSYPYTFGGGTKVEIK
notes: as for B5
B7: huAb15v2 (antibody, V domains shown)
VH: EVQLVESGGGVVQPGRSLRLSCAASGFTFSDYTMAWVRQAPGKGLEWVATIIYSGRGTYYRDAVKGRFTISRDNSKSTLYLQMNSLRAEDTAVYYCARQSDDTYYYWGYFDYWGQGTMVTVSS
VL: DIVMTQSPDSLAVSLGERATINCKSSQSLLFSGNQKNYLAWYQQKPGQSPKLLIYWASTRQSGVPDRFSGSGSGTDFTLTIRSLQAEDVAIYYCQQYYDVPYTFGQGTKLEIK
notes: Humanized, further engineered clone of chAb15, converted to IgG and expressed as a full-length antibody
B8: huAb15v3 (antibody, V domains shown)
VH: B7 VH
VL: B7 VL with D99G, V100S
notes: as for B7
B9: huAb15v7 (antibody, V domains shown)
VH: B7 VH with S54D, G55A
VL: B7 VL with D99G, V100S
notes: as for B7
B10: huAb15v6 (antibody, V domains shown)
VH: B7 VH with S54D, G55A
VL: B7 VL with D99S, V100S
notes: as for B7
B11: huAb15v4 (antibody, V domains shown)
VH: B7 VH with S54T
VL: B7 VL
notes: as for B7
B12: huAb15v1 (antibody, V domains shown)
VH: B7 VH with D102H
VL: B7 VL
notes: as for B7
B13: huAb15v5 (antibody, V domains shown)
VH: B7 VH with S54T
VL: B7 VL with D99S, V100S
notes: as for B7

Target: T1, Human CD98 expressed on stably …
Test: flow cytometry, CHO-K1 cells expressing human CD98
Description: (§1) Briefly, binding kinetics of anti-CD98 chimera mAbs for human and cynomolgus CD98 ECDs were determined by surface plasmon resonance-based measurements as described in Example 4. Table 10 reported the association and dissociation rate constants for CD98 binding, kₐ (M⁻¹s⁻¹) and kd (s⁻¹), and the equilibrium dissociation constant KD (M) of the interaction between antibodies and the target antigen. Binding of anti-CD98 chimera mAbs for CD98 on cell surface was evaluated by flow cytometry against CHO-K1 cell line stably transfected to express human CD98 and 3T12 cell line stably transfected to express cynomolgus monkey CD98.

| Binder | EC50 [nM] |
| --- | --- |
| B1 | 1.67 |
| B2 | 2.02 |
| B3 | 3.84 |
| B4 | 3.25 |

target: T2, Human CD98 ECD with C-terminal His-tag; test: SPR Biacore, anti-Fc capture of mAb, CD98 ECD analyte
Description: (§2) The binding kinetics of these purified mouse and rat monoclonal anti-CD98 antibodies for purified recombinant CD98 protein (extracellular domain. ECD) were determined by surface plasmon resonance-based measurements made on Biacore T100/T200 instruments (GE Healthcare, Piscataway, N.J.) at 25° C. using an anti-Fc capture assay approach. Binding kinetic measurements were made in the assay buffer HBS-EP+: 10 mM Hepes, pH 7.4, 150 mM NaCl, 3 mM EDTA, 0.05% Tween 20). For example, approximately 8000 RU of anti-Fc (species specific) polyclonal antibody (Thermo Fisher Scientific Inc. Rockford, Ill.) diluted in 10 mM sodium acetate (pH 4.5) was directly immobilized across a CM5 research grade biosensor chip using a standard amine coupling kit according to manufacturer's instructions and procedures at 25 μg/ml. Unreacted moieties on the biosensor surface were blocked with ethanolamine. The test antibody to be captured as a ligand was diluted in running buffer to ˜0.5 μg/mL and injected over anti-Fc surface at a flow rate of 10 μL/min, CD98 binding and dissociation were observed under a continuous flow rate of 80 μL/min. Human and cynomolgus monkey CD98 ECDs, both with a C-terminal His-tag, are used for this study (Table 3). After each cycle the anti-Fc capture surface was regenerated using 10 mM Glycine-HCl, pH 1.5. During the assay, all measurements were referenced against the capture surface alone (i.e., with no captured test antibody) and buffer-only injections (no antigen) were used for double referencing. For kinetic analysis, rate equations derived from the 1:1 Langmuir binding model were fitted simultaneously, globally and with mass transfer term included to multiple referenced antigen binding curves using Biacore T100T200 Evaluation software.
(§3) Briefly, binding kinetics of anti-CD98 chimera mAbs for human and cynomolgus CD98 ECDs were determined by surface plasmon resonance-based measurements as described in Example 4.

| Binder | Kd [nM] | koff [s⁻¹] | kon [M⁻¹ s⁻¹] |
| --- | --- | --- | --- |
| B1 | 0.21 | 1.5e-05 | 68000 |
| B2 | 21 | 0.0034 | 160000 |
| B3 | 1.6 | 9.6e-05 | 59000 |
| B4 | 7.5 | 0.0003 | 40000 |

Target: T3, Cynomolgus monkey CD98 ECD with …
Test: as above
Description: as §2, §3

| Binder | Kd [nM] | koff [s⁻¹] | kon [M⁻¹ s⁻¹] |
| --- | --- | --- | --- |
| B1 | 0.8 | 2.2e-05 | 28000 |
| B2 | 40 | 0.0016 | 39000 |
| B3 | 58 | 0.0011 | 19000 |
| B4 | 25 | 0.00044 | 18000 |

target: T6, Cynomolgus monkey CD98 expressed on stably transfected 3T12 cells (cynomolgus monkey); test: flow cytometry, 3T12 cells expressing cynomolgus CD98
T6 construct: whole, on cells; also called cyCD98
Description: as §1

| Binder | EC50 [nM] |
| --- | --- |
| B1 | 9.86 |
| B2 | 9.87 |
| B3 | 12.7 |
| B4 | 24.2 |

target: T4, Human CD98 ECD with C-terminal His-tag; test: SPR (Biacore), antibody captured on anti-Fc surface, CD98 ECD in solution
Description: as §2
(§4) The binding kinetics of the recombinant anti-CD98 chimeric antibodies for purified recombinant CD98 protein (extracellular domain, ECD) were determined by surface plasmon resonance-based measurements, as described in the Example 4.

| Binder | Kd [nM] | koff [s⁻¹] | kon [M⁻¹ s⁻¹] |
| --- | --- | --- | --- |
| B5 | 13 | 0.0023 | 180000 |
| B6 | 4.9 | 0.0013 | 260000 |
| B7 | 1.1 | 4.6e-05 | 42000 |
| B8 | 2 | 8.5e-05 | 44000 |
| B9 | 5.9 | 0.00021 | 35000 |
| B10 | 6.7 | 0.00026 | 38000 |
| B11 | 0.81 | 2.8e-05 | 35000 |
| B12 | 0.43 | 2.3e-05 | 53000 |
| B13 | 3.1 | 0.00013 | 41000 |

Target: T5, Cynomolgus monkey CD98 ECD with …
Test: as above
Description: as §2, §4

| Binder | Kd [nM] | koff [s⁻¹] | kon [M⁻¹ s⁻¹] |
| --- | --- | --- | --- |
| B5 | 23 | 0.00092 | 40000 |
| B6 | 17 | 0.00049 | 29000 |
| B7 | 2.3 | 4.8e-05 | 21000 |
| B8 | 7.6 | 0.00014 | 18000 |
| B9 | 30 | 0.00043 | 14000 |
| B10 | 34 | 0.00049 | 14000 |
| B11 | 2.6 | 5e-05 | 20000 |
| B12 | 1 | 2.6e-05 | 26000 |
| B13 | 11 | 0.00018 | 17000 |

Source: US20200147235A1 (AbbVie / Abbott, published 2020)
